Source: US20110008345A1 (GlaxoSmithKline, published 2011)
Numbering of substitutions follows the chain as printed. Names may count otherwise. “And” between values parts separate entries of the source, which are not always exact repeats. Equal entries are not always repeated.

Key:
[1] = target: T1, recombinant E. coli-expressed human IL-13 (human, UniProt P35225 35-146); experiment: SPR
T1 construct: made and purified at GSK; also called Interleukin-13; rhIL-13

[2] = target: T2, recombinant E. coli-expressed human IL-4 (human, UniProt P05112 25-153); experiment: SPR
T2 construct: made and purified at GSK; also called Interleukin-4; rhIL-4
T2 sequence: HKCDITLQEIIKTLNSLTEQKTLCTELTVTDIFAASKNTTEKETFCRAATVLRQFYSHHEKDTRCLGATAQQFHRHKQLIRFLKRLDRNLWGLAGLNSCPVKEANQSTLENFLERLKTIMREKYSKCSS

[3] = target: T2, recombinant E. coli-expressed human IL-4; experiment: ELISA, IL-4 binding to IL4Ralpha-Fc
[4] = target: T3, recombinant E. coli-expressed cynomolgus IL-13 (cynomolgus, UniProt Q0PW92 21-132); experiment: SPR
T3 construct: also called cyno IL-13

[5] = target: T4, recombinant E. coli-expressed cynomolgus IL-4 (cynomolgus, UniProt P79339 25-153); experiment: SPR
T4 construct: also called cyno IL-4
T4 sequence (looked up): T2 sequence with E26K, V29I, F33L

[6] = target: T2, recombinant E. coli-expressed human IL-4; experiment: SPR exp 1
[7] = target: T1, recombinant E. coli-expressed human …; experiment: SPR exp 1
[8] = target: T2, recombinant E. coli-expressed human IL-4; experiment: SPR exp 2
[9] = target: T1, recombinant E. coli-expressed human …; experiment: SPR exp 2
[10] = target: T1, recombinant E. coli-expressed human …; experiment: SPR; remark: listed apart in the source

B1: 586H-147 (bispecific antibody, human IgG1, kappa)
heavy: not shown
light: DIVMTQSPLSLPVTPGEPASISCRSSQNIVHINGNTYLEWYLQKPGQSPRLLIYKISDRFSGVPDRFSGSGSGTDFTLKISRVEADDVGIYYCFQGSHVPWTFGQGTKLEIKRTVAAPSVFIFPPSDEQLKSGTASVVCLLNNFYPREAKVQWKVDNALQSGNSQESVTEQDSKDSTYSLSSTLTLSKADYEKHKVYACEVTHQGLSSPVTKSFNRGEC
Kd [1]: 0.46 nM | Kd [2]: 345 nM | koff [2]: 0.00118 s⁻¹ | kon [2]: 3420 M⁻¹ s⁻¹

B2: 586H-ASTKG (antibody, human IgG1, kappa)
heavy: not shown
light: B1 light
notes: no dAb; linker only
Kd [1]: 0.32 nM | binding result [2]: no binding (tested: 512 nM top concentration)

B3: 586H-210 (bispecific antibody, human IgG1, kappa)
heavy: not shown
light: B1 light
Kd [1]: 0.44 nM | IC50 [3]: 26.8 nM

B4: 586H-ASTKG-147 (bispecific antibody, human IgG1, kappa)
heavy: not shown
light: B1 light
Kd [1]: 0.44 nM | Kd [2]: 18.8 nM | koff [2]: 0.00069 s⁻¹ | kon [2]: 36700 M⁻¹ s⁻¹

B5: 586H-G4S-147 (bispecific antibody, human IgG1, kappa)
heavy: not shown
light: B1 light
Kd [1]: 0.45 nM | Kd [2]: 108 nM | koff [2]: 0.000457 s⁻¹ | kon [2]: 4210 M⁻¹ s⁻¹

B6: 586H-ELQLE (antibody, human IgG1, kappa)
heavy: not shown
light: B1 light
notes: no dAb; linker only
Kd [1]: 0.47 nM | binding result [2]: no binding (tested: 512 nM top concentration)

B7: 586H-EPKSC (antibody, human IgG1, kappa)
heavy: not shown
light: B1 light
Kd [1]: 0.45 nM | binding result [2]: no binding (tested: 512 nM top concentration)

B8: 586H (antibody, human IgG1, kappa)
heavy: not shown
light: B1 light
notes: no dAb; heavy chain ends in GS
Kd [1]: 0.44 nM | binding result [2]: no binding (tested: 512 nM top concentration)

B9: 586H-EPKSC-147 (bispecific antibody, human IgG1, kappa)
heavy: not shown
light: B1 light
Kd [1]: 0.46 nM | Kd [2]: 26.4 nM | koff [2]: 0.000671 s⁻¹ | kon [2]: 25400 M⁻¹ s⁻¹

B10: 586H-EPKSC-154 (bispecific antibody, human IgG1, kappa)
heavy: not shown
light: B1 light
Kd [1]: 0.42 nM | Kd [2]: 18.8 nM | koff [2]: 0.00057 s⁻¹ | kon [2]: 30300 M⁻¹ s⁻¹

B11: 586H-25 (bispecific antibody, human IgG1, kappa)
heavy: not shown
light: B1 light
Kd [1]: 0.39 nM | Kd [2]: 67 nM | koff [2]: 0.000411 s⁻¹ | kon [2]: 6130 M⁻¹ s⁻¹

B12: 586H-G4S-25 (bispecific antibody, human IgG1, kappa)
heavy: not shown
light: B1 light
Kd [1]: 0.41 nM | Kd [2]: 151 nM | koff [2]: 0.000954 s⁻¹ | kon [2]: 6300 M⁻¹ s⁻¹

B13: 586H-154 (bispecific antibody, human IgG1, kappa)
heavy: not shown
light: B1 light
Kd [1]: 0.46 nM | Kd [2]: 285 nM | koff [2]: 0.00174 s⁻¹ | kon [2]: 6100 M⁻¹ s⁻¹

B14: 586H-ASTKG-154 (bispecific antibody, human IgG1, kappa)
heavy: not shown
light: B1 light
Kd [1]: 0.44 nM | Kd [2]: 8.7 nM | koff [2]: 0.000284 s⁻¹ | kon [2]: 32600 M⁻¹ s⁻¹

B15: 586H-EPKSC-25 (bispecific antibody, human IgG1, kappa)
heavy: not shown
light: B1 light
Kd [1]: 0.55 nM | Kd [2]: 29.6 nM | koff [2]: 0.00142 s⁻¹ | kon [2]: 47900 M⁻¹ s⁻¹

B16: 586H-ASTKG-25 (bispecific antibody, human IgG1, kappa)
heavy: not shown
light: B1 light
Kd [1]: 0.54 nM | Kd [2]: 21.8 nM | koff [2]: 0.0012 s⁻¹

B17: 586H-G4S-154 (bispecific antibody, human IgG1, kappa)
heavy: not shown
light: B1 light
Kd [1]: 0.37 nM | Kd [2]: 138 nM | koff [2]: 0.000685 s⁻¹ | kon [2]: 5000 M⁻¹ s⁻¹

B18: PascoH-TVAAPS-474 (bispecific antibody, human IgG1, kappa)
heavy: not shown
light: DIVLTQSPSSLSASVGDRVTITCKASQSVDYDGDSYMNWYQQKPGKAPKLLIYAASNLESGIPSRFSGSGSGTDFTFTISSLQPEDIATYYCQQSNEDPPTFGQGTKVEIKRTVAAPSVFIFPPSDEQLKSGTASVVCLLNNFYPREAKVQWKVDNALQSGNSQESVTEQDSKDSTYSLSSTLTLSKADYEKHKVYACEVTHQGLSSPVTKSFNRGEC
Kd [4]: 27.1 nM | koff [4]: 0.0117 s⁻¹ | kon [4]: 433000 M⁻¹ s⁻¹ | Kd [5]: 0.0491 nM | koff [5]: 8.85e-05 s⁻¹ | kon [5]: 1.8e+06 M⁻¹ s⁻¹ | Kd [6]: 0.02 nM | koff [6]: 9.7e-05 s⁻¹ | kon [6]: 5.5e+06 M⁻¹ s⁻¹ | Kd [7]: 0.94 nM | koff [7]: 0.00042 s⁻¹ | kon [7]: 450000 M⁻¹ s⁻¹

B19: PascoH-EPKSC-474 (bispecific antibody, human IgG1, kappa)
heavy: not shown
light: B18 light
Kd [6]: 0.02 nM | koff [6]: 9.8e-05 s⁻¹ | kon [6]: 4.9e+06 M⁻¹ s⁻¹ | Kd [7]: 1.1 nM | koff [7]: 0.0004 s⁻¹ | kon [7]: 350000 M⁻¹ s⁻¹

B20: PascoH-ASTKG-474 (bispecific antibody, human IgG1, kappa)
heavy: not shown
light: B18 light
Kd [4]: 29.5 nM | koff [4]: 0.0107 s⁻¹ | kon [4]: 364000 M⁻¹ s⁻¹ | Kd [5]: 0.0445 nM | koff [5]: 7.9e-05 s⁻¹ | kon [5]: 1.78e+06 M⁻¹ s⁻¹ | Kd [6]: 0.02 nM | koff [6]: 8.6e-05 s⁻¹ | kon [6]: 5.3e+06 M⁻¹ s⁻¹ | Kd [7]: 1.5 nM | koff [7]: 0.00046 s⁻¹ | kon [7]: 310000 M⁻¹ s⁻¹

B21: PascoH-ELQLE-474 (bispecific antibody, human IgG1, kappa)
heavy: not shown
light: B18 light
Kd [6]: 0.02 nM | koff [6]: 0.00011 s⁻¹ | kon [6]: 5.1e+06 M⁻¹ s⁻¹ | Kd [7]: 1.8 nM | koff [7]: 0.00062 s⁻¹ | kon [7]: 340000 M⁻¹ s⁻¹

B22: PascoL-474 (bispecific antibody, human IgG1, kappa)
heavy: not shown
light: DIVLTQSPSSLSASVGDRVTITCKASQSVDYDGDSYMNWYQQKPGKAPKLLIYAASNLESGIPSRFSGSGSGTDFTFTISSLQPEDIATYYCQQSNEDPPTFGQGTKVEIKRTVAAPSVFIFPPSDEQLKSGTASVVCLLNNFYPREAKVQWKVDNALQSGNSQESVTEQDSKDSTYSLSSTLTLSKADYEKHKVYACEVTHQGLSSPVTKSFNRGECGSGVQLLESGGGLVQPGGSLRLSCAASGFTFAWYDMGWVRQAPGKGLEWVSSIDWHGEVTYYADSVKGRFTISRDNSKNTLYLQMNSLRAEDTAVYYCATAEDEPGYDYWGQGTLVTVSS
Kd [8]: 0.065 nM and 0.048 nM | koff [8]: 0.000184 s⁻¹ and 0.000122 s⁻¹ | kon [8]: 2.8e+06 M⁻¹ s⁻¹ and 2.53e+06 M⁻¹ s⁻¹ | Kd [9]: 1.34 nM and 1.24 nM | koff [9]: 0.000382 s⁻¹ and 0.000386 s⁻¹ | kon [9]: 286000 M⁻¹ s⁻¹ and 312000 M⁻¹ s⁻¹

B23: PascoL-EPKSC-474 (bispecific antibody, human IgG1, kappa)
heavy: not shown
light: DIVLTQSPSSLSASVGDRVTITCKASQSVDYDGDSYMNWYQQKPGKAPKLLIYAASNLESGIPSRFSGSGSGTDFTFTISSLQPEDIATYYCQQSNEDPPTFGQGTKVEIKRTVAAPSVFIFPPSDEQLKSGTASVVCLLNNFYPREAKVQWKVDNALQSGNSQESVTEQDSKDSTYSLSSTLTLSKADYEKHKVYACEVTHQGLSSPVTKSFNRGECEPKSCDKTHTCPPCPGSGVQLLESGGGLVQPGGSLRLSCAASGFTFAWYDMGWVRQAPGKGLEWVSSIDWHGEVTYYADSVKGRFTISRDNSKNTLYLQMNSLRAEDTAVYYCATAEDEPGYDYWGQGTLVTVSS
Kd [8]: 0.139 nM and 0.127 nM | koff [8]: 0.000258 s⁻¹ and 0.000318 s⁻¹ | kon [8]: 1.86e+06 M⁻¹ s⁻¹ and 2.51e+06 M⁻¹ s⁻¹ | Kd [9]: 0.801 nM and 0.815 nM | koff [9]: 0.000334 s⁻¹ and 0.000286 s⁻¹ | kon [9]: 417000 M⁻¹ s⁻¹ and 351000 M⁻¹ s⁻¹

B24: PascoL-ASTKG-474 (bispecific antibody, human IgG1, kappa)
heavy: not shown
light: DIVLTQSPSSLSASVGDRVTITCKASQSVDYDGDSYMNWYQQKPGKAPKLLIYAASNLESGIPSRFSGSGSGTDFTFTISSLQPEDIATYYCQQSNEDPPTFGQGTKVEIKRTVAAPSVFIFPPSDEQLKSGTASVVCLLNNFYPREAKVQWKVDNALQSGNSQESVTEQDSKDSTYSLSSTLTLSKADYEKHKVYACEVTHQGLSSPVTKSFNRGECASTKGPTGSGVQLLESGGGLVQPGGSLRLSCAASGFTFAWYDMGWVRQAPGKGLEWVSSIDWHGEVTYYADSVKGRFTISRDNSKNTLYLQMNSLRAEDTAVYYCATAEDEPGYDYWGQGTLVTVSS
Kd [8]: 0.041 nM and 0.06 nM | koff [8]: 0.000121 s⁻¹ and 0.000152 s⁻¹ | kon [8]: 2.95e+06 M⁻¹ s⁻¹ and 2.54e+06 M⁻¹ s⁻¹ | Kd [9]: 0.451 nM and 0.595 nM | koff [9]: 0.000238 s⁻¹ and 0.00032 s⁻¹ | kon [9]: 526000 M⁻¹ s⁻¹ and 538000 M⁻¹ s⁻¹

B25: anti-CD20 mAb (antibody, human IgG1, kappa, V domains shown)
VH: QVQLQQPGAELVKPGASVKMSCKASGYTFTSYNMHWVKQTPGRGLEWIGAIYPGNGDTSYNQKFKGKATLTADKSSSTAYMQLSSLTSEDSAVYYCARSTYYGGDWYFNVWGAGTLVTVSS
VL: QIVLSQSPAILSASPGEKVTMTCRASSSVSYIHWFQQKPGSSPKPWIYATSNLASGVPVRFSGSGSGTSYSLTISRVEAEDAATYYCQQWTSNPPTFGGGTKLEIKR
notes: also called Rituxan; anti-CD20 control antibody
binding result [10]: no binding
